The source of these data is publication PMC4486954, “Highly homologous proteins exert opposite biological activities by using different interaction interfaces” (Scientific Reports, 2015).

Experiment [1] has as its target T1, HLT-iASPP Pro (human, UniProt Q8WUF5 1-602).
T1 construct: iASPP (human), proline rich (Pro) domain, residues 1-602 of the 828-residue protein, Swiss-Prot Q8WUF5; Cloned EcoRI/NotI into pHis parallel 2HLT; calculated Mw with tag 75.9 kDa; also called iASPP Pro 1-602; iASPP 1-602; source: E. coli Rosetta2, purified (Nickel Sepharose, size exclusion chromatography); not shown: HLT (His tag, lipoyl domain, TEV protease cleavage site), N-terminal, kept
T1 sequence (looked up): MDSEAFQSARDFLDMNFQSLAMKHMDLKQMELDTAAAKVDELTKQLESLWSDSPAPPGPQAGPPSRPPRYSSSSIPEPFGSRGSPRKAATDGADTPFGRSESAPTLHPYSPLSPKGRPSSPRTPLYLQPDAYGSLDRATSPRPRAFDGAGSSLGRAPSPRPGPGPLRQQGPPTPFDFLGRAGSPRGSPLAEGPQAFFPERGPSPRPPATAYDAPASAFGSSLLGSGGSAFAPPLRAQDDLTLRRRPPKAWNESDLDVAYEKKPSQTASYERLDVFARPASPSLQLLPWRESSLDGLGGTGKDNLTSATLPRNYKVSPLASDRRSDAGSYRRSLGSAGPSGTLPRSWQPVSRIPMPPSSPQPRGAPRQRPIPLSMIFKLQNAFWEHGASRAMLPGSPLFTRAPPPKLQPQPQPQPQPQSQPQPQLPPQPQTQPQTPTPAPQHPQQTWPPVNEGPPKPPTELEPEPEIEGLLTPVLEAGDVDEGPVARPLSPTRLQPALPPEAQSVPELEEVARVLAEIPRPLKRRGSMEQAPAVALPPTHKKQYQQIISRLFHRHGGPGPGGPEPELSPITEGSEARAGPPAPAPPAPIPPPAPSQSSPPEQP
The experiment can be described thus: pull-down; Nickel-NTA beads loaded with HLT-iASPP Pro (1.7 uM), HLT (31 uM) or buffer, 1 h, 4 °C, 40 mM imidazole; then iASPP Ank-SH3 (80 ul of 80 uM, diluted in 1 ml 25 mM phosphate pH 7.0, 10% glycerol, 25 mM imidazole, 100 mM NaCl), 2 h, 4 °C; three washes; eluted by boiling in SDS; Coomassie-stained SDS-PAGE. To be noted: both partners purified.

Experiment [2] deals with T2, iASPP Ank-SH3 (Homo sapiens, UniProt Q8WUF5).
T2 construct: (2) iASPP Ank-SH3 603-828; HLT tag (His tag + lipoyl domain + TEV site) (N, cleaved yes); made in house; host or cells: E. coli HMS 174 (Novagen)
T2 sequence (Q8WUF5 603-828): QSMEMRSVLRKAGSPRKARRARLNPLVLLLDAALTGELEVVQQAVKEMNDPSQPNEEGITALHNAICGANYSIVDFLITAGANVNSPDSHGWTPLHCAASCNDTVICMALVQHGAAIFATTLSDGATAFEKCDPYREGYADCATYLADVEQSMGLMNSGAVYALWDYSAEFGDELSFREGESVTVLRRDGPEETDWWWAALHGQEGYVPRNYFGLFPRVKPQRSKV
Briefly: Nickel affinity pulldown of iASPP Ank-SH3 by HLT-iASPP Pro. In kind it is binding. To be noted: Nickel-NTA beads with HLT-iASPP Pro 1 h at 4 °C, then iASPP Ank-SH3 2 h at 4 °C; SDS-PAGE coomassie staining. On the procedure: After purifying the recombinant HLT-iASPP Pro and iASPP Ank-SH3 we tested whether the recombinant proteins interact using Nickel affinity pulldown assay. Nickel-NTA beads were incubated for one hour with HLT-iASPP Pro or with buffer or HLT alone. Then the beads were incubated with iASPP Ank-SH3 for two hours.
Figure 4 HLT-iASPP Pro interacts with iASPP Ank-SH3 in vitro. Nickel affinity pulldown of iASPP Ank-SH3 by HLT-iASPP Pro, SDS PAGE gel coomassie staining results. Nickel-NTA beads were incubated with HLT-iASPP Pro or with buffer or HLT fusion domain alone, for 1 h at 4 °C. The samples were centrifuged and then incubated with iASPP Ank-SH3 for 2 h at 4 °C. The samples were centrifuged again and the beads were washed 3 times. The beads were eluted by boiling them in SDS solution. Ank-SH3 eluted from the beads only in the presence of HLT-iASPP Pro.
30 μl Nickel-NTA beads (Qiagen) were incubated with: (1) 500 μl buffer C (50 mM Phosphate buffer pH = 7.0, 300 mM NaCl, 10% glycerol, 0.02% NaN3 and 0.001% Tween 20); (2) 250 μl 31 μM HLT; (3) 2 ml 1.7 μM HLT-iASPP Pro (in buffer C) for 1 hour with gentle mixing at 4 °C and in the presence of 40 mM imidazole. The samples were centrifuged (2 min 3500 RPM), and washed with buffer C (5 min, 4 °C, gentle mixing). […] Samples were analyzed on a 10% SDS-PAGE gel.

B1: iASPP Ank-SH3 (domain or fragment, human, UniProt Q8WUF5 603-828, looked up)
chain: T2 sequence (Q8WUF5 603-828)
notes: iASPP (human), four ankyrin repeats and SH3 domain, residues 603-828, Swiss-Prot Q8WUF5; also called iASPP Ank-SH3 603-828; cleaved iASPP Ank-SH3; source: E. coli HMS 174, purified (Nickel Sepharose, TEV cleavage, second Nickel column, size exclusion chromatography); not shown: HLT (His tag, lipoyl domain, TEV protease cleavage site), N-terminal, cleaved
As for B1, the binding result in experiment [1] is listed as “binds”.

B2: HLT-iASPP Pro: recombinant iASPP Pro 1-602 with HLT (His-lipoyl domain-TEV) tag (protein)
chain: T1 sequence (looked up)
modifications: left off: HLT (His tag, lipoyl domain, TEV protease cleavage site), N-terminal, kept
notes: recombinant iASPP Pro 1-602 with HLT (His-lipoyl domain-TEV) tag
On to B2, for which the “pulldown of iASPP Ank-SH3” value in experiment [2] is given as “retrieved”.
